According to patent publication US20110008829A1 (University of California, published 2011):

B1: PDZ lig. (peptide)
peptide: GVKESLV
notes: also called PDZ ligand; GVKESLV
B2: GBD lig. (peptide)
peptide: LVGALMHVMQKRSRAIHSSDEGEDQAGDEDED
notes: also called GBD ligand
B3: SH3 lig. (peptide)
peptide: PPPALPPKRRRPG
notes: also called SH3 peptide ligand
B4: N-terminal GST-tagged HMGS with 0 C-terminal SH3 peptide ligands (enzyme, UniProt P54839 1-491, looked up)
chain: MKLSTKLCWCGIKGRLRPQKQQQLHNTNLQMTELKKQKTAEQKTRPQNVGIKGIQIYIPTQCVNQSELEKFDGVSQGKYTIGLGQTNMSFVNDREDIYSMSLTVLSKLIKSYNIDTNKIGRLEVGTETLIDKSKSVKSVLMQLFGENTDVEGIDTLNACYGGTNALFNSLNWIESNAWDGRDAIVVCGDIAIYDKGAARPTGGAGTVAMWIGPDAPIVFDSVRASYMEHAYDFYKPDFTSEYPYVDGHFSLTCYVKALDQVYKSYSKKAISKGLVSDPAGSDALNVLKYFDYNVFHVPTCKLVTKSYGRLLYNDFRANPQLFPEVDAELATRDYDESLTDKNIEKTFVNVAKPFHKERVAQSLIVPTNTGNMYTASVYAAFASLLNYVGSDDLQGKRVGLFSYGSGLAASLYSCKIVGDVQHIIKELDITNKLAKRITETPKDYEAAIELRENAHLKKNFKPQGSIEHLQSGVYYLTNIDDKFRRSYDVKK
notes: Bait of the GST pull-down; also called HMGS bait with 0 SH3 ligands; not shown: glutathione S-transferase (GST) tag at the N-terminus
B5: HMGR alone (enzyme, Saccharomyces cerevisiae, UniProt P12683 554-1054, looked up)
chain: VLTNKTVISGSKVKSLSSAQSSSSGPSSSSEEDDSRDIESLDKKIRPLEELEALLSSGNTKQLKNKEVAALVIHGKLPLYALEKKLGDTTRAVAVRRKALSILAEAPVLASDRLPYKNYDYDRVFGACCENVIGYMPLPVGVIGPLVIDGTSYHIPMATTEGCLVASAMRGCKAINAGGGATTVLTKDGMTRGPVVRFPTLKRSGACKIWLDSEEGQNAIKKAFNSTSRFARLQHIQTCLAGDLLFMRFRTTTGDAMGMNMISKGVEYSLKQMVEEYGWEDMEVVSVSGNYCTDKKPAAINWIEGRGKSVVAEATIPGDVVRKVLKSDVSALVELNIAKNLVGSAMAGSVGGFNAHAANLVTAVFLALGQDPAQNVESSNCITLMKEVDGDLRISVSMPSIEVGTIGGGTVLEPQGAMLDLLGVRGPHATAPGTNARQLARIVACAVLAGELSLCAALAAGHLVQSHMTHNRKPAEPTKPNNLDATDINRLKDGSVTCIKS
notes: Control prey of the GST pull-down; also called HMGR prey without an N-terminal SH3 domain

Key:
[1] = molecular target: T1, Syn PDZ (PDZ domain of mouse α-syntrophin, residues 77-171) (mouse, UniProt Q61234 77-171); assay: method not described; footnote: affinities reported as measured in trans
T1 construct: range 77-171; also called Mouse α-syntrophin (syn) PDZ domain
T1 sequence (looked up): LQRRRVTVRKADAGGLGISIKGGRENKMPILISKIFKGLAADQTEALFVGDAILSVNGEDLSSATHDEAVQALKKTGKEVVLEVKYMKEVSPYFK

[2] = molecular target: T2, WASP GBD (GTPase Binding Domain of rat N-WASP, residues 196-274) (rat, UniProt O08816 196-274); assay: as above
T2 construct: range 196-274; also called rat N-WASP GBD

[3] = molecular target: T3, Crk SH3 (SH3 domain of mouse Crk, residues 134-191) (mouse, UniProt Q64010 134-191); assay: as above
T3 construct: range 134-191; also called mouse Crk SH3 domain

HMGR alone = molecular target: B5; assay: GST pull-down, GST-HMGS as bait, HMGR as prey
Excerpt: (§1) As a direct test of engineered enzyme co-recruitment, the bottleneck enzymatic step of the mevalonate biosynthetic pathway (HMGR-catalyzed turnover of HMG-CoA to mevalonate) was targeted for flux improvement. A synthetic complex of HMGS and HMGR was created by recombining a varying number of SH3 (Src Homology 3 domain from the adapter protein CRK) interaction ligands to the C-terminus of HMGS and recombining an SH3 domain to the N-terminus of HMGR (FIG. 2a). This simple design also allowed for control over the relative ratio of these two enzymes at the resultant complex. The ability of these proteins to interact in an SH3-dependent manner was probed in a GST pull-down experiment (FIG. 2b). […] As prey, an SH3 domain was recombined to the N-terminus of HMGR and compared to HMGR alone. No significant interaction was observed between HMGS and HMGR without engineered SH3 interactions. However, HMGR with an N-terminal SH3 domain was pulled down by GST-tagged HMGS in a ligand-dependent manner. […] Thus, the relative stoichiometries of these two enzymes were controlled at the complex by varying the number of interaction ligands tethered to HMGS.

[4] = molecular target: T4, HMGR with an N-terminal SH3 domain (mouse; Saccharomyces cerevisiae, UniProt Q64010 134-191; P12683 554-1054); assay: GST pull-down, GST-HMGS as bait, HMGR as prey
T4 construct: also called SH3 domain recombined to the N-terminus of HMGR; HMGR prey with an N-terminal SH3 domain
Excerpt: as §1

[5] = molecular target: T5, N-terminal GST-tagged HMGS with 1 C-terminal SH3 peptide ligand (Saccharomyces cerevisiae, UniProt P54839 1-491); assay: GST pull-down, GST-HMGS as bait, HMGR as prey
T5 construct: Bait of the GST pull-down; also called HMGS bait with 1 SH3 ligand; not shown: glutathione S-transferase (GST) tag at the N-terminus
T5 sequence: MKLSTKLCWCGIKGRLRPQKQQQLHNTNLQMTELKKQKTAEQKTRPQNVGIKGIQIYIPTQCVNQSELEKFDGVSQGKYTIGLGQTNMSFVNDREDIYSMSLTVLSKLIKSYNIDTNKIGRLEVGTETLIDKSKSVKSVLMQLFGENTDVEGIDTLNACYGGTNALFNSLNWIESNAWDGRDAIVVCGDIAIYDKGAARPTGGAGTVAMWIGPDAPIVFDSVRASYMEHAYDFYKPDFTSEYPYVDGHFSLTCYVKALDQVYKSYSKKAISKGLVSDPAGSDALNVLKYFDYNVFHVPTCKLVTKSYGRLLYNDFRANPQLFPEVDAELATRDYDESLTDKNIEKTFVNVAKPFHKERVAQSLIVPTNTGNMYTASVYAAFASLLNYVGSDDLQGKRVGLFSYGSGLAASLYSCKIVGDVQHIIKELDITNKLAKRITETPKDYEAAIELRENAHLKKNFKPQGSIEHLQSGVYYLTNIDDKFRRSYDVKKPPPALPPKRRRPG
Excerpt: as §1

T2 sequence (O08816 196-274 limits assumed): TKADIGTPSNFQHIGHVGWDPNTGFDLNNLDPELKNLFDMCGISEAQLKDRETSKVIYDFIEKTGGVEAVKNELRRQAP
T3 sequence (Q64010 134-191 limits assumed): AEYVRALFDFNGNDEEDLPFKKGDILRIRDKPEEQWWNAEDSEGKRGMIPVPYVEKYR

**Q.** How did the Kd [1] turn out when B1 was run?
**A.** 8000 nM

**Q.** How did the Kd [2] turn out when B2 was run?
**A.** 1000 nM

**Q.** With B3 as the binder, how does the Kd [3] read?
**A.** 100 nM

**Q.** Does B4 bind (HMGR alone)?
**A.** no binding

**Q.** Does B4 bind [4]?
**A.** no binding

**Q.** Does B5 bind [5]?
**A.** no binding
